Measured values as given in US20090099093A1 (Stanford University, published 2009).
No end group written: not given here.

Molecular target: Mushroom tyrosinase (mushroom, UniProt C7FF04 1-392)
Assay: cell-based or functional assay

Sequence of Mushroom tyrosinase (C7FF04 1-392): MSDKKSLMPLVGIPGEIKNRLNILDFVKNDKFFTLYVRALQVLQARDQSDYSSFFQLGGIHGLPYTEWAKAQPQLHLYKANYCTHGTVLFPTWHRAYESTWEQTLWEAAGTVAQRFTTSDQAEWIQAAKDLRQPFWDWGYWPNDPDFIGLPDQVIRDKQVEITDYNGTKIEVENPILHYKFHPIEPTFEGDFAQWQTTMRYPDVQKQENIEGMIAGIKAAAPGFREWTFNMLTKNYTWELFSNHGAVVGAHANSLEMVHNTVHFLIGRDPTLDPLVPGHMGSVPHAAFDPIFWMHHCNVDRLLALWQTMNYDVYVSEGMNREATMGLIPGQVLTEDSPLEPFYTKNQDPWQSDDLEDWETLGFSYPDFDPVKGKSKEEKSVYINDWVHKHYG

Binder	IC50 (inhibition of mushroom tyrosinase activity, dopachrome at 475 nm, L-tyrosine substrate) [µM]
Pro-Leu-Gly-OH [PLG-OH]	2730
SFLLRN [SF peptide (SFLLRN)]	8000
RADSRADC [RA peptide (RADSRADC)]	123
